This data set deals with reduced RNase (reduced pancreatic RNase).

B1: bovine QSOX1 (quiescin Q6 sulfhydryl oxidase 1) isolated from milk (protein)
chain: SALYSSSDPLTLLRADTVRSTVLGSSSAWAVEFFASWCGHCIAFAPTWKALANDVKDWRPALNLAALDCAEETNSAVCRDFNIPGFPTVRFFKAFSKTGSGTTLSVAGADVQTLRERLIDALESHSDTWPPACPPLEPARLEEITGFFARNNEEYLALIFEKEGSYLGREVTLDLSQHQGIAVRRVLNTERDVVNRFGVTNFPSCYLLSRNGSFSRVPALTESRSFYTTYLRKFSGSTRGAVQTTAAPATTSAVAPTVWKVADRSKIYMADLESALHYILRIEVGKFSVLEGQRLVALKKFMAVLAKYFRGRPLVQNFLHSMNDWLKKQQRKKIPYGFFKNALDSRKEGTVIAEKVNWVGCQGSEPHFRGFPCSLWILFHFLTVQAAQEGVDHPQERAKAQEVLQAIRGYVRFFFGCRECAGHFEQMASGSMHRVGSLNSAVLWFWSSHNKVNARLAGAPSEDPQFPKVQWPPRELCSACHNELRGTPVWDLDNILKFLKTHFSPSNIVLDFPSAGPGPWR
As usually defined, the KM is the substrate concentration at which the rate is half of its maximum. Usually kcat/KM stands for the turnover number divided by the Michaelis constant. With B1, the KM was 60 µM; the kcat (min^-1), thiols oxidized per minute came out at 1340 min⁻¹; the specificity constant (kcat/KM) was found to be 374000 M⁻¹ s⁻¹.
